Substrate: C[N+](C)(C)[C@@H](Cc1cnc([S+]([O-])C[C@H](N)C(=O)O)[nH]1)C(=O)[O-]
Test: purified protein
Conditions: pH 8.0, 25 °C, 1 mM DTT

B1: Egt2 (Neurospora crassa OR74A) (protein)
chain: MVATTVELPLQQKADAAQTVTGPLPFGNSLLKEFVLDPAYRNLNHGSFGTIPSAIQQKLRSYQTAAEARPCPFLRYQTPVLLDESRAAVANLLKVPVETVVFVANATMGVNTVLRNIVWSADGKDEILYFDTIYGACGKTIDYVIEDKRGIVSSRCIPLIYPAEDDDVVAAFRDAIKKSREEGKRPRLAVIDVVSSMPGVRFPFEDIVKICKEEEIISCVDGAQGIGMVDLKITETDPDFLISNCHKWLFTPRGCAVFYVPVRNQHLIRSTLPTSHGFVPQVGNRFNPLVPAGNKSAFVSNFEFVGTVDNSPFFCVKDAIKWREEVLGGEERIMEYMTKLAREGGQKVAEILGTRVLENSTGTLIRCAMVNIALPFVVGEDPKAPVKLTEKEEKDVEGLYEIPHEEANMAFKWMYNVLQDEFNTFVPMTFHRRRFWARLSAQVYLEMSDFEWAGKTLKELCERVAKGEYKESA
B1 was tested, and the Km was 155 ± 10 µM and the kcat was 8.7 ± 0.1 s⁻¹.

Source: publication PMC5959753
